Assay results from patent publication US20260217813A1 (published 2026).

T1: IL-12 (Human IL12 (His Tag)), Sino Biological Cat. No. CT-050-H08H-20 (human, UniProt P29460 23-328; P29459 23-219)
T1 construct: Bought His-tagged p35/p40 heterodimer
T1 sequence (looked up) 1: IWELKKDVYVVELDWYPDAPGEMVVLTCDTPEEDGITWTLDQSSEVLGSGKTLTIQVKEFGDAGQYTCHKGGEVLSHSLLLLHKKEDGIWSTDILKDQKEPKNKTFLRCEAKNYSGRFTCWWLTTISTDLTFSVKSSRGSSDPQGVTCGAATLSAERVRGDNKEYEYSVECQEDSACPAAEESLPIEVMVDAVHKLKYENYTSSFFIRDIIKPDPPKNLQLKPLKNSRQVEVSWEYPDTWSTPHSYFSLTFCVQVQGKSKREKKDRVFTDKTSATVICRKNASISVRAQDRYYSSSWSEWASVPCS
T1 sequence (looked up) 2: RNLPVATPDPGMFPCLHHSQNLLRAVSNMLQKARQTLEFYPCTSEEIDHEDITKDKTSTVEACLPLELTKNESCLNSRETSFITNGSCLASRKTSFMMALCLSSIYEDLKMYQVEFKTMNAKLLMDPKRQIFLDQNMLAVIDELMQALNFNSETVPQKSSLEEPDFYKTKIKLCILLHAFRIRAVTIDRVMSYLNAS

T2: human IL-23 (IL-23-His-Biotin, Akesobio, 20161209) (human, UniProt Q9NPF7 20-189; P29460 23-328)
T2 construct: His-tagged and biotinylated; also called human IL23-His-Biotin
T2 sequence (looked up) 1: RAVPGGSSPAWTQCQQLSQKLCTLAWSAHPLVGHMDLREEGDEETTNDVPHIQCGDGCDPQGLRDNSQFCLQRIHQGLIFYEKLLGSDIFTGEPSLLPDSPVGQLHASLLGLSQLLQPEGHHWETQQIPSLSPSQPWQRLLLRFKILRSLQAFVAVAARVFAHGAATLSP
T2 sequence (looked up) 2: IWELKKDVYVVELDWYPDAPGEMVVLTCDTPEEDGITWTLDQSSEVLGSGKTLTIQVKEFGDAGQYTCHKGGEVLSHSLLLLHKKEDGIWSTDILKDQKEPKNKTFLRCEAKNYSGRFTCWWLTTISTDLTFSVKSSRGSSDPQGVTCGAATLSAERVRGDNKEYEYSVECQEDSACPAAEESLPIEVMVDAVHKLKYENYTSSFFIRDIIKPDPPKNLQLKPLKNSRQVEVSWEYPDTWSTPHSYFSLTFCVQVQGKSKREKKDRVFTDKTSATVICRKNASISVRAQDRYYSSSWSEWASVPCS


What was measured:
[1] = biological target: T1, IL-12 (Human IL12 (His Tag)), Sino …; assay: FACS competition, IL-12-His 20 nM on 293T-IL-12RB1&IL-23R cells, antibody 10 µg/mL
Experimental: (§1) 200 μL of 1% PBSA was added into each sample, and the mixture was centrifuged at 700×g for 5 min to discard the supernatant. According to experiment design, correspondingly diluted antibody (highest final concentration of 30 μg/mL, 3-fold dilution, 8 concentrations in total) and human IL-12 (Sino Biological, Cat. No.: CT-050-H08H-20) (final concentration of 20 nM) were mixed at a ratio of 1:1, and a blank control was set. The mixture of antibody and human IL12 was incubated on ice for 30 min and then added to the cell precipitate at 100 μL/sample. The resulting mixture was well mixed and incubated on ice for 60 min. 200 μL of 1% PBSA was added, and the mixture was centrifuged at 700×g for 5 min to discard the supernatant, and then washed twice. Alexa Fluor® 488 anti-His tag antibody (Biolegend, Cat. No.: 652509) was diluted at a ratio of 1:400 and added to each tube at 100 μL. The mixture was well mixed and incubated on ice for 40 min in the absence of light. 200 μL of 1% PBSA was added, and the mixture was centrifuged at 700×g for 5 min to discard the supernatant, and then washed twice. 1% PBSA was added at 200 μL/tube, and the cells were resuspended and transferred to a flow cytometry tube for testing.

[2] = biological target: T1, IL-12 (Human IL12 (His Tag)), Sino …; assay: FACS competition, IL-12-His 20 nM on 293T-IL-12RB1&IL-23R cells, antibody 30 µg/mL
Experimental: as §1

[3] = biological target: T1, IL-12 (Human IL12 (His Tag)), Sino …; assay: FACS competition, IL-12-His 20 nM on 293T-IL-12RB1&IL-23R cells, antibody 0.12 µg/mL
Experimental: as §1

[4] = biological target: T1, IL-12 (Human IL12 (His Tag)), Sino …; assay: FACS competition, IL-12-His 20 nM on 293T-IL-12RB1&IL-23R cells, antibody 0.01 µg/mL
Experimental: as §1

[5] = biological target: T1, IL-12 (Human IL12 (His Tag)), Sino …; assay: FACS competition, IL-12-His 20 nM on 293T-IL-12RB1&IL-23R cells, antibody 0.04 µg/mL
Experimental: as §1

[6] = biological target: T2, human IL-23 (IL-23-His-Biotin, …); assay: FACS competition, IL-23-His-Biotin 2 µg/mL on 293T-IL-12RB1&IL-23R cells, antibody 3.33 µg/mL
Experimental: (§2) 2.1. […] 200 μL of 1% PBSA was added into each sample, and the mixture was centrifuged at 700×g for 5 min to discard the supernatant. According to experiment design, correspondingly diluted antibody (highest final concentration of 30 μg/mL, 3-fold dilution, 8 concentrations in total) and human IL-23 (IL-23-His-Biotin, Akesobio, 20161209) (final concentration of 2 μg/mL) were mixed at a ratio of 1:1, and a blank control was set. The mixture of antibody and human IL23 was incubated on ice for 30 min and then added to the cell precipitate at 100 μL/sample. The resulting mixture was well mixed and incubated on ice for 60 min. 200 μL of 1% PBSA was added, and the mixture was centrifuged at 700×g for 5 min to discard the supernatant, and then washed twice. FITC Streptavidin (Biolegend, Cat. No.: 405202) was diluted at a ratio of 1:500 and added to each tube at 100 μL. The mixture was well mixed and incubated on ice for 40 min in the absence of light. 200 μL of 1% PBSA was added, and the mixture was centrifuged at 700×g for 5 min to discard the supernatant, and then washed twice. 1% PBSA was added at 200 μL/tube, and the cells were resuspended and transferred to a flow cytometry tube for testing.

[7] = biological target: T2, human IL-23 (IL-23-His-Biotin, …); assay: FACS competition, IL-23-His-Biotin 2 µg/mL on 293T-IL-12RB1&IL-23R cells, antibody 10 µg/mL
Experimental: as §2

| Binder | MFI [1] | MFI [2] | MFI [3] | MFI [4] | MFI [5] | MFI [6] | MFI [7] |
| --- | --- | --- | --- | --- | --- | --- | --- |
| H5L9 (antibody, human IgG1, kappa, V domains shown, Humanized anti-human IL-12/IL-23 p40 antibody; IgG1 (P01857) / kappa (P01834) constant regions) VH: EVQLVQSGAEVKKPGESLKISCQSSGYSFTTYWIGWVRQMPGQGLEWIGIMSPVDSDIRYNPMFRGQVTMSVDKSSSTAYLQWSSLKASDTAMYYCARRRPGQGYFDFWGQGTMVTVSS VL: DIQMTQSPSSLSASVGDRVTITCKASQNVGSWLAWYQQKPGKAPKSLIYSASSRQSGVPSRFSGSGSGTDFTLTISSLQPEDFATYYCQQYDIYPFTFGQGTKLEIKR | 134 | 117 | 160 | 169 | 158 | 153 | 136 |
| H5L10 (antibody, human IgG1, kappa, V domains shown, IgG1/kappa) VH: EVQLVQSGAEVKKPGESLKISCQSSGYSFTTYWIGWVRQMPGQGLEWIGIMSPVDSDIRYNPMFRGQVTMSVDKSSSTAYLQWSSLKASDTAMYYCARRRPGQGYFDFWGQGTMVTVSS VL: EIVLTQSPATLSASPGERATISCRASQSVGSWLAWYQQKPGQAPRSLIYAASNLQSGIPARFSGSGSGTDFTLTISSLEPEDFAVYYCQQYNIYPYTFGQGTRLEIKR | 34.1 | 31.6 | 151 | 163 | 154 | 15.7 | 12.7 |
| H5L11 (antibody, human IgG1, kappa, V domains shown, IgG1/kappa) VH: EVQLVQSGAEVKKPGESLKISCQSSGYSFTTYWIGWVRQMPGQGLEWIGIMSPVDSDIRYNPMFRGQVTMSVDKSSSTAYLQWSSLKASDTAMYYCARRRPGQGYFDFWGQGTMVTVSS VL: EIVLTQSPATLSASPGERATISCRASQSVSSWLAWYQQKPGQAPRSLIYSASNLQSGIPARFSGSGSGTDFTLTISSLEPEDFAVYYCQQYNIYPYTFGQGTRLEIKR | 33.9 | 33 | 145 | 166 | 151 | 20.2 | 14.5 |

Results, then the binder that gave them:

| MFI [1] | MFI [2] | MFI [3] | MFI [4] | MFI [5] | MFI [6] | MFI [7] | Binder |
| --- | --- | --- | --- | --- | --- | --- | --- |
| 31 | 28.7 | 137 | 160 | 150 | 13.8 | 11.5 | ustekinumab (trade name Stelara) (antibody, V domains shown) VH: EVQLVQSGAEVKKPGESLKISCKGSGYSFTTYWLGWVRQMPGKGLDWIGIMSPVDSDIRYSPSFQGQVTMSVDKSITTAYLQWNSLKASDTAMYYCARRRPGQGYFDFWGQGTLVTVSS VL: DIQMTQSPSSLSASVGDRVTITCRASQGISSWLAWYQQKPEKAPKSLIYAASSLQSGVPSRFSGSGSGTDFTLTISSLQPEDFATYYCQQYNIYPYTFGQGTKLEIK |
| 46.3 | 34.9 | 146 | 149 | 155 | 23.6 | 16.7 | H5L14 (antibody, human IgG1, kappa, V domains shown, IgG1/kappa) VH: EVQLVQSGAEVKKPGESLKISCQSSGYSFTTYWIGWVRQMPGQGLEWIGIMSPVDSDIRYNPMFRGQVTMSVDKSSSTAYLQWSSLKASDTAMYYCARRRPGQGYFDFWGQGTMVTVSS VL: EIVLTQSPATLSASPGERATISCRASQSVSSWLAWYQQKPGQAPRSLIYAASNLQSGIPARFSGSGSGTDFTLTISSLEPEDFAVYYCQQYNIYPFTFGQGTRLEIKR |
| 32.4 | 31.8 | 133 | 161 | 149 | 15.8 | 12.7 | H5L12 (antibody, human IgG1, kappa, V domains shown, IgG1/kappa) VH: EVQLVQSGAEVKKPGESLKISCQSSGYSFTTYWIGWVRQMPGQGLEWIGIMSPVDSDIRYNPMFRGQVTMSVDKSSSTAYLQWSSLKASDTAMYYCARRRPGQGYFDFWGQGTMVTVSS VL: EIVLTQSPATLSASPGERATISCRASQSVSSWLAWYQQKPGQAPRSLIYAASNRQSGIPARFSGSGSGTDFTLTISSLEPEDFAVYYCQQYNIYPYTFGQGTRLEIKR |
